Columns and labels:
[1] = biological target: TGF-β1 (Homo sapiens (Human)) (UniProt P01137)
[2] = biological target: TGF-β2 (Homo sapiens (Human)) (UniProt P61812)
[3] = biological target: T1, TGF-β3 (Homo sapiens (Human)) (UniProt P10600)
T1 sequence: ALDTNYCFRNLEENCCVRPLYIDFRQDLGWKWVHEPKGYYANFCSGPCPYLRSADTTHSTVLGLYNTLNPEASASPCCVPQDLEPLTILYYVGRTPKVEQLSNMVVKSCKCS

IC50 for TGF-β1 (neutralization, Mv1Lu luciferase reporter cells) [1]: 1.43 nM | IC50 for TGF-β2 (neutralization, Mv1Lu luciferase reporter cells) [2]: 8.67 nM | IC50 for TGF-β3 (neutralization, Mv1Lu luciferase reporter cells) [3]: 0.029 nM
Substance: pan-specific TGF-β neutralizing antibody 1D11 (R&D Systems)
